According to patent US20230270861A1, “Inhibitors of the Artemin Pathway for Treatment of Cancer” (The University of Chicago, priority 2020, published 2023):

Tests used:
[1] = system: p-AKT and p-ERK in LLC cells; assay: Western blot of p-AKT and p-ERK in LLC cells treated with ARTN and LOXO-292; format: cell-based, mouse; conditions: 100 ng/mL ARTN and 1 μg/mL LOXO-292
Method: FIGS. 61A-61C. Tumor growth of LLC tumor-bearing mice treated with LOXO-292 and either IR (FIG. 61A) or anti-PD-L1 (FIG. 61B). (FIG. 61C) p-AKT and p-ERK in LLC cells treated with 100 ng/mL ARTN and 1 μg/mL LOXO-292 were detected by western blot. Representative data are shown from two or three experiments. Data are represented as mean±SD. *p<0.05, **p<0.01, and ***p<0.001.
Western Blot Analysis. Whole-cell protein was extracted with Triton-X100 buffer (150 mM sodium chloride, 50 mM Tris, 1% Triton-X100; pH 8.0) with proteinase inhibitors (Thermo Scientific®). Immuno-blotting analyses were performed as previously described (Hou, Y., Liang, H., Rao, E., Zheng, W., Huang, X., Deng, L., Zhang, Y., Yu, X., Xu, M., Mauceri, H., et al. (2018). Non-canonical NF-kappaB Antagonizes STING Sensor-Mediated DNA Sensing in Radiotherapy. Immunity 49, 490-503 e494). The amount of loaded protein was normalized to GAPDH (60004-1-Ig, Proteintech Group) or actin (8226, Abcam).

LLC tumor [2] = assay: Spontaneous lung metastasis (number of lung nodules) in LLC tumor-bearing mice; format: in vivo, mouse; conditions: murine LLC model; combined with IR or anti-PD-L1
Method: FIG. 55. Number of lung nodules in LLC tumor-bearing mice at the end of tumor growth measurement: anti-PD-L1 treatment. B6 mice were inoculated with LLC cells. On day 10 post inoculation, tumor-bearing mice were treated with anti-PD-L1. Splenectomy was performed 1 day before treatments. Representative data are shown from two or three experiments conducted with 3-5 mice or samples per group. Data are represented as mean±SD. **p<0.01 and ***p<0.001.
FIGS. 62A-62B. Number of lung modules. B6 mice were inoculated with LLC cells. On day 10 post inoculation, tumor-bearing mice were treated with either IR (FIG. 62A) or anti-PD-L1 (FIG. 62B) plus LOXO-292. Splenectomy was performed 1 day before treatments. […] Representative data are shown from two or three experiments conducted with 3-5 mice or samples per group. Data are represented as mean±SD. *p<0.05, **p<0.01, and ***p<0.001.
Tumor models and treatments. 1×10^6 MC38, LLC, or B16-SIY tumor cells were subcutaneously injected into the flank of mice. On day 10 after tumor inoculation, tumors were either irradiated with one dose of 20 Gy or mice received sham treatment. For anti-PD-L1 treatment experiments, 200 μg anti-PD-L1 (10F.9G2) or isotype control was given by i.p. every three days for a total of four times starting on day 10 after tumor inoculation. […] Tumor size was monitored and calculated with the formula for area (length×width).

[3] = cited from earlier work
LLC tumor [4] = assay: Tumor growth of LLC tumor-bearing mice treated with IR or anti-PD-L1 plus test agent; format: in vivo, mouse; conditions: LLC tumor-bearing B6 mice; for Tumor growth: influence on the therapeutic effect of IR and PD-L1 blockade: agent combined with 20 Gy IR or anti-PD-L1
Method: (§1) Tumor models and treatments. 1×10^6 MC38, LLC, or B16-SIY tumor cells were subcutaneously injected into the flank of mice. On day 10 after tumor inoculation, tumors were either irradiated with one dose of 20 Gy or mice received sham treatment. For anti-PD-L1 treatment experiments, 200 μg anti-PD-L1 (10F.9G2) or isotype control was given by i.p. every three days for a total of four times starting on day 10 after tumor inoculation. For type I IFN blockade experiments, 200 μg anti-IFNAR1 were intratumorally injected on days 0 and 2 after irradiation. For CD4 or CD8 T cell depletion experiments, 200 μg anti-CD4 or anti-CD8 mAb was delivered four times by i.p. injection every 3 days starting 1 day before therapies. Artemin-neutralizing antibody was delivered i.t. at 1 μg/mouse starting on day of irradiation, every 2 days for 7 doses. For Ter-cell depletion, anti-ter119 was injected i.p. at 20 μg/mouse every 2 days for 4 doses. For Ter-cell or artemin treatment groups, mice were administered 1×10^7 purified Ter cells i.v. every other day for a total of three doses, or mice were treated with 0.5 μg/mouse artemin i.t. every other day starting on day 0 of therapies throughout the studies. For EPO treatment groups, mice were treated with 20 U/mouse EPO i.v. every other day throughout the studies, starting on day 0 of the therapies. IFN-γ was administered through intrasplenic injection on day 15 post tumor implantation at 2 μg/mouse for 1 dose. LOXO-292 was administered by oral gavaging at 100 μg/mouse/day throughout the entire studies, starting on day 0 of the therapies. Spleens were harvested on day 20 or at indicated times post-inoculation for analysis of spleen size or splenic cells. Tumor size was monitored and calculated with the formula for area (length×width).

Ter-cells [5] = assay: Spleen size, splenocytes and splenic Ter-cells by flow cytometry; format: in vivo, mouse
Method: as §1
(§2) Flow Cytometry. […] Single cell suspensions were blocked with anti-FcR (2.4G2, BioXcell) and then stained with fluorescence-labeled antibodies. Flow cytometry was performed on BD LSR Fortessa at The University of Chicago core facility and data were analyzed with FlowJo software.

Ter-cells [6] = assay: Splenic cells by flow cytometry after intrasplenic IFN-γ injection in LLC-bearing mice; format: in vivo, mouse
Method: FIG. 27. Apoptosis of splenic Ter-cells as analyzed by flow cytometry at indicated times post-injection. B6 mice were inoculated with LLC on day 0 and recombinant mouse IFN-γ was administered through intrasplenic injection on day 15. Representative data are shown from two or three experiments conducted with 3-5 mice per group. Data are represented as mean±SD. *p<0.05, **p<0.01, and ***p<0.001.
FIG. 28A-28C. Mechanism of IR-induced Ter-cell reduction in spleen. (FIG. 28A) Apoptosis of splenic CD45^+ immune cells, MDSCs, and CD8^+ T cells as analyzed by flow cytometry at indicated time post IFN-γ intrasplenic injection. (FIG. 28B) The percentage of CD8^+ T cells were analyzed by flow cytometry at indicated time post IFN-γ intrasplenic injection. (FIG. 28C) […] expression on splenic Ter-cells on day 3 post IFN-γ intrasplenic injection. Representative data are shown from two or three experiments conducted with 3-5 mice or samples per group. Data are represented as mean±SD. *p<0.05, **p<0.01, and ***p<0.001.
as §1, with “IFN-γ was administered through intrasplenic injection on day 15 post tumor implantation at 2 μg/mouse for 1 dose. LOXO-292 was administered by oral gavaging at 100 μg/mouse/day throughout the entire studies, starting on day 0 of the therapies. Spleens were harvested on day 20 or at indicated times post-inoculation for analysis of spleen size or splenic cells.” left out
as §2

artemin = assay: Artemin levels in serum (ELISA) and artemin mRNA in spleen (qPCR); format: in vivo, mouse; conditions: LLC tumor-bearing mice treated with IR or anti-PD-L1 plus EPO i.v.
Method: ELISA. Tumor tissues were homogenized in PBS with protease inhibitor followed by the addition of Triton X-100. Serum was collected on day 20 post-tumor inoculation or at indicated times. The concentration of artemin or TGF-β was measured with artemin ELISA Kit (E03A0032 for mouse and E01A0032 for human, BlueGene Biotechnology), or TGF-β1 Mouse ELISA Kit (BMS608-4, Invitrogen).
Real-time PCR assay. mRNA from tumor cells or splenocytes was isolated using TRIzol according to the manufacturer's instructions (Invitrogen). cDNA was synthesized from pd(N)6-primed mRNA reverse transcription using M-MLV superscript reverse transcriptase. Real-time PCR kits (SYBR Premix Ex Taq™, DRR041A) were purchased from Takara Bio Inc. PCR was performed using a CFX96 (Bio-Rad). mRNA specific for the housekeeping gene GAPDH was measured and used as an internal control. The primers for artemin were 5′-TACTGCATTGTCCCACTGCCTCC-3′ (SEQ ID NO: 1) for the upstream primer (UP) and 5′-TCGCAGGGTTCTTTCGCTGCACA-3′ (SEQ ID NO: 2) for the downstream primer (DP); GAPDH: 5′-AGACCAGCCTGAGCAAAAGA-3′ (SEQ ID NO: 3) for UP and 5′-CTAGGCTGGAGTGCAGTGGT-3′ (SEQ ID NO: 4) for DP.

[7] = LLC tumor-bearing mice, intra-splenic injection

COc1ccc(CN2C3CC2CN(c2ccc(-c4cc(OCC(C)(C)O)cn5ncc(C#N)c45)cn2)C3)cn1 [LOXO-292]
Artemin-induced activation of downstream signaling (p-AKT, p-ERK) [1]: inhibited artemin-induced activation of downstream signaling
Spontaneous lung metastasis: influence on the effects of IR and PD-L1 blockade (LLC tumor [2]): promoted the effects of IR and PD-L1 blockade
Outcomes for patients with RET fusion-positive cancers [3]: improved outcomes
Tumor growth: therapeutic effect of IR and PD-L1 blockade in the context of EPO treatment (LLC tumor [4]; IR or anti-PD-L1 plus EPO plus agent): restored the therapeutic effects of IR and PD-L1 blockade
Tumor growth: influence on the therapeutic effect of IR and PD-L1 blockade (LLC tumor [4]): enhanced the effects of IR and PD-L1 blockade

IFN-α
Ter-cell accumulation in spleen after intra-tumor injection (Ter-cells [5]; WT mice bearing LLC or B16-SIY tumors, i.t.): reduced Ter-cell accumulation

CO[C@]1(C(=O)N[C@@H](C)c2ccc(-n3cc(F)cn3)nc2)CC[C@H](c2nc(C)cc(Nc3cc(C)[nH]n3)n2)CC1 [BLU-677]
Outcomes for patients with RET fusion-positive cancers [3]: improved outcomes

rhEPO: Recombinant human erythropoietin used for the treatment of anemia in cancer patients
Survival benefit in cancer patients treated by RT ([3]; several clinical trials): detrimental effects

B1: IFN-γ: Recombinant mouse IFN-γ (315-05) from Peprotech, intrasplenic injection (protein, UniProt P01580 23-155, looked up)
Interferon gamma: HGTVIESLESLNNYFNSSGIDVEEKSLFLDIWRNWQKDGDMKILQSQIISFYLRLFEVLKDNQAISNNISVIESHLITTFFSNSKAKKDAFMSIAKFEVNNPQVQRQAFNELIRVVHQLLPESSLRKRKRSRC
Abundance of CD8+ T cells in spleen (Ter-cells [6]; [7]): restored the abundance
Apoptosis of immune cells, including MDSCs and CD8+ T cells (Ter-cells [6]; [7]): did not change apoptosis levels
Apoptosis of splenic Ter-cells (Ter-cells [6]; LLC tumor-bearing mice, intra-splenic injection, 3 days after treatment): increased apoptosis of Ter-cells
MHC I expression on Ter-cells (Ter-cells [6]; day 3 post intrasplenic injection): enhanced the MHC I expression

B2: EPO: recombinant erythropoietin (959-ME) from R&D Systems (protein, UniProt P07321 27-192, looked up)
Erythropoietin: APPRLICDSRVLERYILEAKEAENVTMGCAEGPRLSENITVPDTKVNFYAWKRMEVEEQAIEVWQGLSLLSEAILQAQALLANSSQPPETLQLHIDKAISGLRSLTSLLRVLGAQKELMSPPDTTPPAPLRTLTVDTFCKLFRVYANFLRGKLKLYTGEVCRRGDR
Tumor growth: influence on the therapeutic effect of IR and PD-L1 blockade (LLC tumor [4]): inhibited the therapeutic effect of both IR and PD-L1 blockade
Ter-cell accumulation under IR or PD-L1 blockade (Ter-cells [5]; LLC tumor-bearing mice treated with IR or anti-PD-L1 plus EPO i.v.): diminished the effects of IR and PD-L1 blockade
Spleen size and Ter-cell accumulation in naive mice (Ter-cells [5]; naive B6 mice, i.v. and s.c. routes): increased spleen size and Ter-cell accumulation
Level of secreted artemin in serum under IR or PD-L1 blockade (artemin): diminished the effects of IR and PD-L1 blockade
